Substrate in the data set: NCCCNCCCCNCCCN
As to the kind of experiment: purified protein, by the assay type. To be noted: other: substrate, 2.5 nM hSMOX; 11.3 °C.

Where “and” joins values, the source holds several entries; their conditions need not be identical. Equal entries are not always repeated.

B1: hSMOX (Homo sapiens) (protein)
chain: MQSCESSGDSADDPLSRGLRRRGQPRVVVIGAGLAGLAAAKALLEQGFTDVTVLEASSHIGGRVQSVKLGHATFELGATWIHGSHGNPIYHLAEANGLLEETTDGERSVGRISLYSKNGVACYLTNHGRRIPKDVVEEFSDLYNEVYNLTQEFFRHDKPVNAESQNSVGVFTREEVRNRIRNDPDDPEATKRLKLAMIQQYLKVESCESSSHSMDEVSLSAFGEWTEIPGAHHIIPSGFMRVVELLAEGIPAHVIQLGKPVRCIHWDQASARPRGPEIEPRGEGDHNHDTGEGGQGGEEPRGGRWDEDEQWSVVVECEDCELIPADHVIVTVSLGVLKRQYTSFFRPGLPTEKVAAIHRLGIGTTDKIFLEFEEPFWGPECNSLQFVWEDEAESHTLTYPPELWYRKICGFDVLYPPERYGHVLSGWICGEEALVMEKCDDEAVAEICTEMLRQFTGNPNIPKPRRILRSAWGSNPYFRGSYSYTQVGSSGADVEKLAKPLPYTESSKTAPMQVLFSGEATHRKYYSTTHGALLSGQREAARLIEMYRDLFQQGT
B1: the Michaelis-Menten constant (Km) is 34 µM and 33.9 ± 2.7 µM.

As a reminder, the Km is the substrate concentration at which the rate is half of its maximum.

The record behind these values is article PMC9355956, “Structure of human spermine oxidase in complex with a highly selective allosteric inhibitor” (Communications Biology, 2022).
